Values belong to the binder of their own block, whether it stands above or below them.
Experiments:
Experiment in all cases: cryo-EM structure; budding yeast replisome: 150 nM CMG on fork DNA (39 nt 3′ flap, 60 nt 5′ flap) with 1.5-fold molar excess of Tof1-Csm3, Mrc1 and Pol α-primase; 25 mM HEPES-NaOH pH 7.6, 150 mM NaOAc, 0.5 mM TCEP, 500 μM AMP-PNP, 10 mM Mg(OAc)2, on ice; 10-30% glycerol gradient with glutaraldehyde and BS3 cross-linkers
Mcm3 (budding yeast) = target: T1, Mcm3 (budding yeast) (S. cerevisiae, UniProt P24279 1-971); conditions: both partners purified
T1 construct: Mcm3, S. cerevisiae; stood in the assay as a subunit of m2; source: subunit of CMG from S. cerevisiae strain yJY197, purified as described previously
T1 sequence (P24279 whole entry): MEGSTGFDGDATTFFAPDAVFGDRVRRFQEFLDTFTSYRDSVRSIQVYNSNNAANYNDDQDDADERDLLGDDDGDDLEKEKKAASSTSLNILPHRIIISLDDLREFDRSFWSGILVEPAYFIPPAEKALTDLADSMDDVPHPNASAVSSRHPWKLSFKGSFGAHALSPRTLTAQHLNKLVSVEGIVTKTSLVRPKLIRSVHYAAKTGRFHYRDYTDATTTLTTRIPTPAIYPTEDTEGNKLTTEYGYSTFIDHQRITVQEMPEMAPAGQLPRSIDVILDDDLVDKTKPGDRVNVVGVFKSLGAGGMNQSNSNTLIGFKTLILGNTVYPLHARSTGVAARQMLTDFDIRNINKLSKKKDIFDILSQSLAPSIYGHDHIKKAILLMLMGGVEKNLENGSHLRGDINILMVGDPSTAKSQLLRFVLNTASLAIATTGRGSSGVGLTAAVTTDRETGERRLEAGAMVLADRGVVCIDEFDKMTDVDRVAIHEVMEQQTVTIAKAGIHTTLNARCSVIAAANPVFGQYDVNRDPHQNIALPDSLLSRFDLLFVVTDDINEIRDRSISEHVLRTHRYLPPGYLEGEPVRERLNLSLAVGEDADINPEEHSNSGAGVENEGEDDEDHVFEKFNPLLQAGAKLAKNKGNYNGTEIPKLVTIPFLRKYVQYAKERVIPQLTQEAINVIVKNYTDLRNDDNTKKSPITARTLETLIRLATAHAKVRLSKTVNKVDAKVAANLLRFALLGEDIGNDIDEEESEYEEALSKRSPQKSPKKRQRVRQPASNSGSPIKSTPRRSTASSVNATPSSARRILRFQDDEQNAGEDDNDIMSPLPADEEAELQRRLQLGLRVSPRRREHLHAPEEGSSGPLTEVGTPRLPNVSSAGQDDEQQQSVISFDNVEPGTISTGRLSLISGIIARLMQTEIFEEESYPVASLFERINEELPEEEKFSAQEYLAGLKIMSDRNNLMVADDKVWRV

[1] = target: T2, Pol1 (budding yeast Pol α catalytic subunit) (S. cerevisiae, UniProt P13382 1-1468); conditions: both partners purified
T2 construct: Pol1, S. cerevisiae; modelled: CTD 1271-1468 and CIP box F140-S149; stood in the assay as a subunit of m1; also called Pol1CTD; Pol1CIP; source: subunit of Pol α-primase from S. cerevisiae strain yAE95, purified as described previously
T2 sequence: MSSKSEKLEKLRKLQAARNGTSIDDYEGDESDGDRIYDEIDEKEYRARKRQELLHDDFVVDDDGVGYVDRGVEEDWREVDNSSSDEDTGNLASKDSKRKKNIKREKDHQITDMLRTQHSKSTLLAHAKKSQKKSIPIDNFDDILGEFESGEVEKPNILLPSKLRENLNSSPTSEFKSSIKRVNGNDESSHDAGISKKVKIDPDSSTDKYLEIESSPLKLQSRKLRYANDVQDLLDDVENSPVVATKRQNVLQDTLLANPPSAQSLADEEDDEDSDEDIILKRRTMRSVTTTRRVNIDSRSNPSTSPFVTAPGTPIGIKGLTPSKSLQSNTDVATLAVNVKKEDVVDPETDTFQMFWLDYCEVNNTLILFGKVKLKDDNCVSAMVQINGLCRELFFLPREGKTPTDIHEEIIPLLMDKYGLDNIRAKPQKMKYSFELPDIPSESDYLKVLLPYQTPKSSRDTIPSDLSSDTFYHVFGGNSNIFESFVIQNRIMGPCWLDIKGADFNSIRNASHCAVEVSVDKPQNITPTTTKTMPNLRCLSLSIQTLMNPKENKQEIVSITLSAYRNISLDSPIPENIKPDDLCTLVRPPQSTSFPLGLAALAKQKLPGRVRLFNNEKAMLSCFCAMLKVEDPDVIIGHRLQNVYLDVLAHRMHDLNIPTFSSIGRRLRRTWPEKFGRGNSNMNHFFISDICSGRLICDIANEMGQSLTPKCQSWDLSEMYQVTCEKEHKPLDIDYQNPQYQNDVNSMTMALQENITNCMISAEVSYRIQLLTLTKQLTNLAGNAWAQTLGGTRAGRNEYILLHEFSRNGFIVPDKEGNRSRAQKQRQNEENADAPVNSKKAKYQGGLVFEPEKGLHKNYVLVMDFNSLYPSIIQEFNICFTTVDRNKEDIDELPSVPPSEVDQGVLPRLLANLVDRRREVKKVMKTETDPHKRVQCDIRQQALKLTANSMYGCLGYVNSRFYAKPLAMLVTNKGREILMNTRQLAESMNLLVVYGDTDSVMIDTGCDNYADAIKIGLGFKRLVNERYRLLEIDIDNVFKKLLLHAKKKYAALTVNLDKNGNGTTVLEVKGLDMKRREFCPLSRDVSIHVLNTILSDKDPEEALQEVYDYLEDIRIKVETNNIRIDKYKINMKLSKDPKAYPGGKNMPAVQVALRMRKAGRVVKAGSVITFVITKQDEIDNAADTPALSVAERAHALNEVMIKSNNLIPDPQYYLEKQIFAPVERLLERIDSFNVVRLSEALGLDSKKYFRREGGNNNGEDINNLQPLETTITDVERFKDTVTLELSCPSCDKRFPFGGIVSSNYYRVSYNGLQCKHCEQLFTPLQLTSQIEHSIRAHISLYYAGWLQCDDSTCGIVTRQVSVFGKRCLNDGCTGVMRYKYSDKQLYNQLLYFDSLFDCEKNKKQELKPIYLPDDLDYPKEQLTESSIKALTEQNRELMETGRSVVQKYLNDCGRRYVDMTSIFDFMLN

[2] = target: T3, Pri2 (budding yeast primase accessory subunit) (S. cerevisiae, UniProt P20457 1-528); conditions: both partners purified
T3 construct: Pri2, S. cerevisiae; modelled residues 1-5 (N terminus), 44-177 and 181-299 (NTD); stood in the assay as a subunit of m1; also called Pri2NTD; Pri2_(Nterm); source: subunit of Pol α-primase from S. cerevisiae strain yAE95, purified as described previously
T3 sequence: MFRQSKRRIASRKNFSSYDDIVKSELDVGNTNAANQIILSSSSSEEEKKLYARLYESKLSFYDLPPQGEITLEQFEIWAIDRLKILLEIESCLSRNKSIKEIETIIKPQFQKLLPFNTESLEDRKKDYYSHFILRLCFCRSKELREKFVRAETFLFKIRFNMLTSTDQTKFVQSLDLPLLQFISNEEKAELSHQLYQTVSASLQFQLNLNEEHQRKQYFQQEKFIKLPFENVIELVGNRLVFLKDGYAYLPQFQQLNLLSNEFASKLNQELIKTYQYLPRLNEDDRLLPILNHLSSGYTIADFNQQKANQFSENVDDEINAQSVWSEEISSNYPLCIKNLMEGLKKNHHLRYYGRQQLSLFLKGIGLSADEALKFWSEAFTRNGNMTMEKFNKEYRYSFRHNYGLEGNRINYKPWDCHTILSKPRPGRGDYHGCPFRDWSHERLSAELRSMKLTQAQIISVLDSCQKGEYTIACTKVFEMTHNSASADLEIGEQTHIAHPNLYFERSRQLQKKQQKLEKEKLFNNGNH

[3] = target: the molecule itself
[4] = target: T4, budding yeast CMG (Cdc45-Mcm2-7-GINS) replicative helicase (S. cerevisiae, UniProt Q08032 1-650; P29469 1-868; P24279 1-971; P30665 1-933; P29496 1-775; P53091 …); conditions: both partners purified
T4 construct: Cdc45, S. cerevisiae; Mcm2, S. cerevisiae; Mcm3, S. cerevisiae; Mcm4, S. cerevisiae (named only within Mcm2-7); Mcm5, S. cerevisiae; Mcm6, S. cerevisiae (named only within Mcm2-7); Mcm7, S. cerevisiae (named only within Mcm2-7); Psf1, subunit of GINS, S. cerevisiae; Psf2, subunit of GINS, S. cerevisiae; Sld5, subunit of GINS, S. cerevisiae; source: S. cerevisiae strain yJY197, expressed and …

binding result (Mcm3 (budding yeast)): binds
binding result [1]: binds
B1: Pol12 (budding yeast Pol α accessory subunit) (natural protein, S. cerevisiae)
chain: MSGSIDVITHFGPDADKPEIITALENLTKLHALSVEDLYIKWEQFSNQRRQTHTDLTSKNIDEFKQFLQLQMEKRANQISSSSKVNTSTKKPVIKKSLNSSPLFGLSIPKTPTLKKRKLHGPFSLSDSKQTYNVGSEAETNEKGNSSLKLEFTPGMAEDAVGDSAPLSHAKSSDAKTPGSSTFQTPTTNTPTTSRQNVPAGEILDSLNPENIEISSGNPNVGLLSTEEPSYNQVKVEPFYDAKKYKFRTMRQNLQEASDVLDDQIESFTKIIQNHYKLSPNDFADPTIQSQSEIYAVGRIVPDSPTYDKFLNPESLSLETSRMGGVGRRVRLDLSQVNELSFFLGQIVAFKGKNANGDYFTVNSILPLPYPNSPVSTSQELQEFQANLEGSSLKVIVTCGPYFANDNFSLELLQEFIDSINNEVKPHVLIMFGPFIDITHPLIASGKLPNFPQFKTQPKTLDELFLKLFTPILKTISPHIQTVLIPSTKDAISNHAAYPQASLIRKALQLPKRNFKCMANPSSFQINEIYFGCSNVDTFKDLKEVIKGGTTSSRYRLDRVSEHILQQRRYYPIFPGSIRTRIKPKDVSTKKETNDMESKEEKVYEHISGADLDVSYLGLTEFVGGFSPDIMIIPSELQHFARVVQNVVVINPGRFIRATGNRGSYAQITVQCPDLEDGKLTLVEGEEPVYLHNVWKRARVDLIAS
notes: Pol12, S. cerevisiae; modelled residues 1-79, 203-582 and 604-705; stood in the assay as a subunit of m1; also called Pol12NTD; source: subunit of Pol α-primase from S. cerevisiae strain yAE95, purified as described previously

binding result [2]: binds
B2: Psf2 (budding yeast GINS subunit) (natural protein, S. cerevisiae)
chain: MSLPAHLQQTFSPEEIQFIVENEPIKIFPRITTRQKIRGDDRGTGNHTRWQLITTDDKALNNMVAMRSTEVVLWIALLLKQQSKCSIVAPQWLTTKELDRKIQYEKTHPDRFSELPWNWLVLARILFNKAKDDFHDPIHELRGKIQDLREIRQIKVLKGLKYLNESHLQLDNLSLLEINELRPFITEIMDKLREIHTASLTAGTENDEEEFNI
notes: Psf2, subunit of GINS, S. cerevisiae; stood in the assay as a subunit of m2; source: subunit of CMG from S. cerevisiae strain yJY197, purified as described previously

binding result [2]: binds
B3: Pri1 (budding yeast primase catalytic subunit) (natural protein, S. cerevisiae)
chain: MTNSVKTNGPSSSDMEYYYKSLYPFKHIFNWLNHSPKPSRDMINREFAMAFRSGAYKRYNSFNSVQDFKAQIEKANPDRFEIGAIYNKPPRERDTLLKSELKALEKELVFDIDMDDYDAFRTCCSGAQVCSKCWKFISLAMKITNTALREDFGYKDFIWVFSGRRGAHCWVSDKRARALTDVQRRNVLDYVNVIRDRNTDKRLALKRPYHPHLARSLEQLKPFFVSIMLEEQNPWEDDQHAIQTLLPALYDKQLIDSLKKYWLDNPRRSSKEKWNDIDQIATSLFKGPKQDSHIIKLRECKEDLVLMTLYPKLDVEVTKQTIHLLKAPFCIHPATGNVCVPIDESFAPEKAPKLIDLQTEMEKNNDVSLTALQPFINQFQAYVSSLLKNELGSVKREREDDDEPASLDF
notes: Pri1, S. cerevisiae; modelled aside from its flexible N and C termini; stood in the assay as a subunit of m1; source: subunit of Pol α-primase from S. cerevisiae strain yAE95, purified as described previously

binding result [4]: binds
binding result [1]: binds
B4: Ctf4 (budding yeast) (natural protein, UniProt Q01454 1-927, looked up)
chain: MVSVIDKLVFDFGGKTLVSLAPDNNTLCVANKNGLTKILKTNNPEEEPETLDSSKLVSSIKCYSNSHFLMTTMQGDALRYNIDSSQEELLARFALPLRDCCVIHSGKMAVFGGDDLELILLELDDETHKKHAIKIDEQVSQISYNSQMNILAVSMINGKVQIFSLTSTIPNKVHELNDYIVANSYDDTHRDKILSNMMDDIDKDNDNDLSETADPDENNVADPEFCAANRICTRVAWHPKGLHFALPCADDTVKIFSIKGYSLQKTLSTNLSSTKAHFIDLQFDPLRGTYIAAVDLNNKLTVWNWETSEIHYTREFKRKITNIAWKIQADSKTLDLVLGTWSGSIAIVQNLAESVVSNIPDQSVAESSTKHGLFVDSESDLENLEGNDDINKSDKLFSDITQEANAEDVFTQTHDGPSGLSEKRKYNFEDEEDFIDDDDGAGYISGKKPHNEHSYSRVHKTHSFPISLANTGKFRYMPFSPAGTPFGFTDRRYLTMNEVGYVSTVKNSEQYSITVSFFDVGRFREYHFEDLFGYDLCFLNEKGTLFGQSKTGQIQYRPHDSIHSNWTKIIPLQAGERITSVAATPVRVIVGTSLGYFRSFNQFGVPFAVEKTSPIVALTAQNYRVFSVHYSQFHGLSYSLSELGTSSKRYYKRECPLPMSLPNINSDMKKDANLDYYNFNPMGIKSLFFSSYGDPCIFGSDNTLLLLSKWRSPEESKWLPILDSNMEIWKMSGGKETTDIHVWPLALAYDTLNCILVKGKHIWPEFPLPLPSEMEIRMPVFVKSKLLEENKAILNKKNEIGADTEAEEGEEDKEIQIPVSMAAEEEYLRSKVLSELLTDTLENDGEMYGNENEVLAALNGAYDKALLRLFASACSDQNVEKALSLAHELKQDRALTAAVKISERAELPSLVKKINNIREARYEQQLK
notes: Ctf4, S. cerevisiae; the results say that Ctf4 was not added to the yeast reconstitution; the general method lists Ctf4/AND-1 among the proteins added; source: endogenous Ctf4 likely co-purifying with CMG from S. cerevisiae
stoichiometry N [3]: 3
